We go through 4 molecules from paper PMC3060121, “The Peroxisomal Targeting Signal 1 in sterol carrier protein 2 is autonomous and essential for receptor recognition” (BMC Biochemistry, 2011).

In experiment [1] the target is T1, Gal4DB-mSCP2 (21-143), two-hybrid fusion (human, UniProt P22307-2 21-143).
T1 construct: sterol carrier protein 2, human, residues 21-143; numbers count on: preSCP2 of 143 residues; In pPC97 between SalI and NotI; source: yeast two-hybrid fusion (S. cerevisiae PCY2)
T1 sequence (looked up): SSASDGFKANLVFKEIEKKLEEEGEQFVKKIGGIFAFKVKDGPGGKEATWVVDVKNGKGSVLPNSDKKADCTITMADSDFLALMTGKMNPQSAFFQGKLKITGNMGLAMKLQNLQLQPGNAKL
In words: two-hybrid; GAL4 based, S. cerevisiae PCY2; Gal4AD-Pex5p(C) with Gal4DB-SCP2 variants; β-galactosidase activity (A420 per mg protein per min), mean of three measurements. To be noted: partners not purified.

For experiment [2], the target named is T2, Gal4DB-preSCP2 (1-143), two-hybrid fusion (human, UniProt P22307-2 1-143).
T2 construct: sterol carrier protein 2, human, residues 1-143, printed length 143; numbers count on: preSCP2 of 143 residues; In pPC97 between SalI and NotI; source: yeast two-hybrid fusion (S. cerevisiae PCY2)
T2 sequence (looked up): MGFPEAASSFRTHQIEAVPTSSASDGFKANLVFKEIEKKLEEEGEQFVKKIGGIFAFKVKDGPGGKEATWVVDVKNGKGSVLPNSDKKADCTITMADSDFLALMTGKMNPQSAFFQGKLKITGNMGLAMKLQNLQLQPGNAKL
Described as above. As to conditions: partners not purified.

The target of experiment [3] is T3, human Pex5p(C), cargo-binding domain of Pex5p (residues 315-639), wild-type (human, UniProt P50542 315-639, biotin (EZ-Link Sulfo-NHS-Biotinylation Kit, between 1 and 2 moles of biotin per mole) in the Octet RED96 assay only).
T3 construct: The His6-GST fusion is cleavable with TEV protease; also called Pex5p(C) WT; HsPex5p(C)
The experiment is described as follows: ITC; MicroCal VP-ITC; Pex5p(C) wild-type or mutant titrated with mSCP2 or the peptide PGNAKL; as described in ref 4. To be noted: both partners purified.

For experiment [4], the target named is T4, human Pex5p(C) (residues 315-639) R608W (human, UniProt P50542 315-639, R608W, biotin (EZ-Link Sulfo-NHS-Biotinylation Kit, between 1 and 2 moles of biotin per mole) in the Octet RED96 assay only).
T4 construct: Made by QuikChange on the His6-GST Pex5p(C) plasmid; also called Pex5p(C) R608W
The description is as above. As to conditions: both partners purified.

The target in experiment [5] is T5, human Pex5p(C) (residues 315-639) D624W (human, UniProt P50542 315-639, D624W, biotin (EZ-Link Sulfo-NHS-Biotinylation Kit, between 1 and 2 moles of biotin per mole) in the Octet RED96 assay only).
T5 construct: Made by QuikChange on the His6-GST Pex5p(C) plasmid; also called Pex5p(C) D624W
The description is as above. To be noted: both partners purified.

The target of experiment [6] is T3, human Pex5p(C), cargo-binding domain of …. In words: BLI; Octet RED96; biotinylated Pex5p(C) immobilised on streptavidin sensors at 20 μg/mL; PBS, 1000 rpm; association 1800 s, dissociation 1800 s; local fits, 1:1 model. As to conditions: both partners purified. On the technique in general: In BLI a coated tip is dipped into the sample, and binding shifts an interference pattern.

In experiment [7] the target is T4, human Pex5p(C) (residues 315-639) R608W. The experiment is described as above. To be noted: both partners purified.
Experiment [8] addresses T5, human Pex5p(C) (residues 315-639) D624W. The experiment is described as above. As to conditions: both partners purified.
In experiment [9] the target is T6, human Pex5p(C) (residues 315-639) S600W, infantile Refsum disease mutant (human, UniProt P50542 315-639, S600W, biotin (EZ-Link Sulfo-NHS-Biotinylation Kit, between 1 and 2 moles of biotin per mole)).
T6 construct: also called Pex5p(C)S600W
Described as above. To be noted: both partners purified.

B1: Gal4AD-Pex5p(C) (residues 315-639) R608W, two-hybrid fusion (domain or fragment)
chain: not shown
notes: also called Pex5p(C) R608W; source: yeast two-hybrid fusion (S. cerevisiae PCY2)
In the case of B1, the “fold reduction of the two-hybrid interaction against wild-type Pex5p(C)” value in experiment [1] and in experiment [2] was 3 fold throughout.

B2: mature sterol carrier protein 2, mSCP2 (21-143) (natural protein, human, UniProt P22307-2 21-143, looked up)
chain: SSASDGFKANLVFKEIEKKLEEEGEQFVKKIGGIFAFKVKDGPGGKEATWVVDVKNGKGSVLPNSDKKADCTITMADSDFLALMTGKMNPQSAFFQGKLKITGNMGLAMKLQNLQLQPGNAKL
notes: numbers count on: preSCP2 of 143 residues; The His6-GST fusion is cleavable with TEV protease
Take B2: the values for the Kd in experiment [3], in experiment [4] and in experiment [5] were 95 ± 21 nM, 179 ± 19 nM and 45 ± 8 nM, respectively. The dH in experiment [3] is -10.4 kcal/mol; in experiment [4] it was -17.1 kcal/mol; in [5] it was -13.3 kcal/mol. For the same molecule, the stoichiometry N (usually a count of units in the complex or per binding partner) in [3] turned out to be 0.93 ± 0.03; in [4], 0.61 ± 0.06; in [5] it was 0.41 ± 0.08. Further, the koff (in general, a measure of how fast the partners let go of each other) in experiment [6] was determined as 5.5e-05 s⁻¹; in experiment [7] it was 7.3e-05 s⁻¹; in experiment [8], 0.00015 s⁻¹; in experiment [9], 6e-05 s⁻¹. Moreover, the kon (usually the second-order rate constant of association) was found to be 23000 M⁻¹ s⁻¹ in experiment [6], 7200 M⁻¹ s⁻¹ in [7], 11000 M⁻¹ s⁻¹ in [8] and 6500 M⁻¹ s⁻¹ in experiment [9].

B3: PTS1 hexapeptide PGNAKL derived from the C-terminus of SCP2 (peptide)
peptide: PGNAKL
notes: C-terminal six residues of sterol carrier protein 2, human; numbers count on: preSCP2 of 143 residues; Free C-terminal carboxylate (PGNAKL-CO2-) as printed in the background; also called PGNAKL-CO2-; source: synthetic peptide (Sigma-Aldrich, > 95% purity)
On to B3, for which, in experiment [3], the Kd (as a rule, the concentration at which binding is half-saturated) worked out at 547 ± 6 nM; the dH was -10.2 kcal/mol; the “stoichiometry N” value is 0.94 ± 0.02. Besides, in experiment [4], the affinity, expressed as Kd, was 635 ± 25 nM; the dH is -12.3 kcal/mol; the “stoichiometry N” value is 0.81 ± 0.01. Besides, in experiment [5], the Kd was found to be 763 nM, the dH was -13.1 kcal/mol and the “stoichiometry N” value amounted to 0.49 ± 0.01.

B4: sterol carrier protein 2 with presequence, preSCP2 (1-143) (natural protein, human, UniProt P22307-2 1-143, looked up)
chain: MGFPEAASSFRTHQIEAVPTSSASDGFKANLVFKEIEKKLEEEGEQFVKKIGGIFAFKVKDGPGGKEATWVVDVKNGKGSVLPNSDKKADCTITMADSDFLALMTGKMNPQSAFFQGKLKITGNMGLAMKLQNLQLQPGNAKL
notes: numbers count on: preSCP2 of 143 residues; The His6-GST fusion is cleavable with TEV protease; also called full-length SCP2
Turning to B4, the koff was 7.9e-05 s⁻¹ in experiment [6], 5e-05 s⁻¹ in experiment [7], 8.6e-05 s⁻¹ in experiment [8] and 5.1e-05 s⁻¹ in [9]. Besides, the kon worked out at 35000 M⁻¹ s⁻¹ in experiment [6], 9000 M⁻¹ s⁻¹ in [7], 13000 M⁻¹ s⁻¹ in experiment [8] and 7300 M⁻¹ s⁻¹ in [9].
